# Measured values reported in US20210353712A1, “METHODS OF DIAGNOSING AND TREATING VASCULAR ASSOCIATED MACULOPATHY AND SYMPTOMS THEREOF” (University of Utah Research Foundation, priority 2011, published 2021).
# Tested on: DQ elastin
# Test: In vitro elastin degradation assay
# Type: biochemical
# Method: Therefore, studies were performed to determine whether HTRA1 degrades elastin, a major component of Bruch's membrane. Recombinant HTRA1 was incubated with dye-labeled elastin at 37° C. for two hrs and the fluorescence of the released elastin peptides was monitored at 513 nm. […] In an additional positive control assay, HTRA1 elastase activity was measured by fluorescence using various concentrations of elastase enzyme starting with 0.04 ng/well of porcine pancreatic elastase and 100 ng/well of Protealmmun HtrA1. DQ Elastin substrate was 25 ug/ml.
# Recombinant HtrA1 protein expressed and purified from Sf9 cells was purchased from Protealmmun (Cat. #30600103). The HtrA1 elastase activity was measured using a fluorescent EnzChekElastase Assay Kit from Invitrogen (Cat. #E12056) using the protocol provided, except substrate concentration was 12.50 ? g/mL. HtrA1 concentration was titrated from 200-12.5 ng/well in two-fold dilutions. Activity was measured in 30-minute increments for a total of 2 hours.
# The explanation for the elastin degradation in both the Bruch's membrane and the choroid vessels in the HTRA1 mice is that the protease activity of overexpressed HTRA1, which is secreted from RPE, caused the degeneration. Since HTRA1 was not known to have elastase activity, an in vitro elastin degradation assay was performed using DQ elastin, a soluble elastin labeled with quenched BODIPY FL dye, as a substrate. Purified recombinant human HTRA1 degraded elastin with a specific activity of 4.4±0.8 u/mg (n=3). […] To eliminate the possibility that the depletion of the elastic layers of the choroidal vessels and Bruch's membrane was the result of downregulation of elastin expression, we analyzed the protein level of soluble elastin in the RPE/choroid of hHTRA1^+ and WT mice by western blot. […] This is similar to what has been observed in human donors with AMD and with aberrant choriocapillaris lobules.
Substance,Elastase specific activity (DQ elastin substrate),"Degradation of dye-labeled elastin (37° C. for two hrs, fluorescence at 513 nm)","Elastase activity, times less than porcine pancreas elastase (DQ elastin substrate)"
porcine pancreas elastase: reference elastase enzyme [reference compound],135±5.5 u/mg,,
recombinant human HTRA1: purified recombinant human HTRA1 serine protease,4.4±0.8 u/mg,degraded dye-labeled elastin,~30 times
